Measured values published in the Human Domainome abundance scans (Beltran et al. 2025).

B1: Retinoic acid receptor RXR-alpha, residues 132 to 208; numbered along this chain, P19793 (parent)
chain: KHICAICGDRSSGKHYGVYSCEGCKGFFKRTVRKDLTYTCRDNKDCLIDKRQRNRCQYCRYQKCLAMGMKREAVQEE
B2: Proto-oncogene vav, residues 782 to 842; numbered along this chain, P15498 (parent)
chain: KYFGTAKARYDFCARDRSELSLKEGDIIKILNKKGQQGWWRGEIYGRVGWFPANYVEEDYS

Variants of: B1
Assay: abundance fitness (aPCA) (normalised: wild type 0, dead -1); higher = more abundant; growth selection in yeast, the domain comes from the species named
Settings: Homo sapiens

Abundance fitness, by site and new letter:
V18: Y -0.262; A -0.133
R10: V -0.199; T -0.024; N -0.024
S20: H 0.015; I 0.019; Q 0.012
N54: Y -0.061; S -0.167
S11: W -0.066; T -0.089; Y -0.096
G26: I -0.116; V 0.007; E -0.043
C7: Q -0.988; K -1.29; T -0.981; G -0.921
V74: M -0.025; L -0.046; W -0.074
F28: R -0.917; Y -0.13; V -0.321
G8: P -0.227; R -0.125; L -0.179; C -0.027; D -0.04
I6: D -0.729; Y -0.881; Q -0.909
C21: G -0.956; D -0.413; F -0.962; I -1.12; L -0.986; A -1.07; S -0.98
K29: F -0.035; A 0.05; R -0.003; G 0.025; E 0.028
A73: R -0.037; C 0.04; K -0.081
I48: T 0; L 0.016; G -0.007
Q75: V 0.013; W -0.129
Q57: L -0.016; K -0.113; Y -0.065; N -0.052
C24: I -0.987; D -0.049; W -1.01; M -1.18; E -0.559; Q -0.891; F -0.889

Variants of: B2
Assay: as above
Settings: Homo sapiens

Abundance fitness, by site and new letter:
Y55: W -0.198; T -0.206; V -0.074; S -0.206
D59: G -0.097; R -0.285; Q 0.01; E -0.038; C -0.125; H -0.109; M -0.027; P -0.371; W 0.048; A -0.188; L -0.138; V -0.009; N 0.052; Y -0.244; T 0.008; F -0.015
S61: H 0.019; I -0.2; D -0.208; P 0.232; E -0.235; L -0.095; C 0.071; F -0.28; W -0.084; K -0.196; G -0.194; A -0.073; R -0.011; V -0.216
Y60: C -0.119; H 0.027; P -0.183; L 0.062; S 0.016; Q -0.097; D 0.106; F 0.017; R -0.005; M 0.009; G -0.039; E 0.005; W -0.169; V 0.134; A -0.079; I -0.024; K -0.122
E58: M -0.216; P -0.169; R -0.336; N -0.6; Y -0.065; Q -0.19; A -0.186; W -0.364; V -0.117; H -0.533; S -0.362; G -0.338; F -0.297; D -0.435; T -0.129; L -0.225
E57: S -0.059; P -1.02; V -0.001; A -0.052; N -0.185; I -0.073; C -0.284; M -0.105; L -0.194; D -0.172; Q -0.109; W -0.478; R -0.123; T 0.025; Y -0.106; H -0.424; K -0.313; F -0.175
V56: P -0.73; M -1.02; Q -1; R -1.03; L -0.616; W -0.543; G -0.545; E -0.562; S -0.919; H -0.753; I -0.554; F -0.794; A -0.191; C -0.452; N -0.807; Y -0.325; K -0.599
